Source: patent EP4471048A1, “PEPTIDE INHIBITORS OF INTERLEUKIN-23 RECEPTOR” (Zealand Pharma A/S, priority 2023, dated 2024)
*1 amine or outer side, *2 acyl side, *3 side chain or, on linkers, in order; H or OH if unused. Bridges are numbered along the chain shown (N, C = ends). Primed or numbered codes have the meaning given here. Where no end group is shown, it is not given here. [ ]: non-standard residue; d: D form. 4‑Aminomethyl‑phenylacetyl = 4-aminomethyl-phenylacetyl unit, its amine closes the lactam, O=C(Cc1ccc(CN[*:1])cc1)[*:2]; 1,3‑dibromopropan‑2‑one″ = linker forming 1,3-dithio-propan-2-one bridge -SCH2C(=O)CH2S- between two Cys; bLys = L-beta-lysine, (3S)-3,6-diaminohexanoic acid, O=C(C[C@H](CCCN[*:3])N[*:1])[*:2]; Phe(4-Me) = Cc1ccc(C[C@H](N)C(=O)O)cc1; 2Nal = N[C@@H](Cc1ccc2ccccc2c1)C(=O)O; AEF = NCCOc1ccc(C[C@H](N)C(=O)O)cc1; 3Pal = N[C@@H](Cc1cccnc1)C(=O)O; αMeL = CC(C)C[C@](C)(N)C(=O)O; 3Amb = NCc1cccc(C(=O)O)c1; Dab = NCC[C@H](N)C(=O)O; Aib = CC(C)(N)C(=O)O

T1: Nluc-IL23R fusion protein (human, UniProt Q5VWK5 22-629)
T1 construct: range 22-629; Stably expressed in HEK293 cells; also called hIL-23R; human IL-23R; not shown: Nanoluc protein (N1371, Promega) at the N-terminus, after a secretion signal
T1 sequence (looked up): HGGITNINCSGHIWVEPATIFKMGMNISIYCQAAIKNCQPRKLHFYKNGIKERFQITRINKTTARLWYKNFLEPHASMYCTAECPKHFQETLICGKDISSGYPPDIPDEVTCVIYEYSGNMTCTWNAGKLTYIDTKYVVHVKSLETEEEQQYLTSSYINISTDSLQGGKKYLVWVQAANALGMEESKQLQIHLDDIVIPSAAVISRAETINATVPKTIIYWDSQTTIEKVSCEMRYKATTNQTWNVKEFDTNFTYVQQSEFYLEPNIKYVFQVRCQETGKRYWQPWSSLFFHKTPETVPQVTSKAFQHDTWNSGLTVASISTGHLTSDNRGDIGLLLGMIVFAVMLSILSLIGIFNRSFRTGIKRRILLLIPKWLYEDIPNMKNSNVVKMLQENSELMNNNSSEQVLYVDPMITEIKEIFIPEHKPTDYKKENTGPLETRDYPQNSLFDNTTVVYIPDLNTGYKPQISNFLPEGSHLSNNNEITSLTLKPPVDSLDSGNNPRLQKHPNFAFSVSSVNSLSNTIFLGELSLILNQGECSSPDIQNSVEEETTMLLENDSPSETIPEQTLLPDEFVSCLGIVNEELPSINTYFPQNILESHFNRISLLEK

T2: human IL-23R endogenously expressed on DB cells (human, UniProt Q5VWK5 24-629)
T2 sequence (looked up): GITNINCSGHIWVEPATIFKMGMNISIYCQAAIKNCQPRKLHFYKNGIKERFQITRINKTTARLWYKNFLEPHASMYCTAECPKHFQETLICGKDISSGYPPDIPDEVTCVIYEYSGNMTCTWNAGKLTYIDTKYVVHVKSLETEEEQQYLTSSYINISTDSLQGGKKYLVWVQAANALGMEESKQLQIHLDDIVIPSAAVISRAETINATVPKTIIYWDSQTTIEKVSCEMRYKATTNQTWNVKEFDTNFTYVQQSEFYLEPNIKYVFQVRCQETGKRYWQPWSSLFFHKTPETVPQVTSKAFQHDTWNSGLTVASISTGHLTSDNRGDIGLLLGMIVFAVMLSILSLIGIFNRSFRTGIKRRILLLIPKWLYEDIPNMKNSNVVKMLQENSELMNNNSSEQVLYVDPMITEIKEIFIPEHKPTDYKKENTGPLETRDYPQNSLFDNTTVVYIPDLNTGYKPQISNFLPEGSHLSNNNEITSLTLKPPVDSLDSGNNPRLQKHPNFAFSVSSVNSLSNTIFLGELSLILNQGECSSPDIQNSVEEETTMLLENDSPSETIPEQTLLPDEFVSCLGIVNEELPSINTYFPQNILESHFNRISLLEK

B1: Compound 2 (peptide)
peptide: KTVWQE[AEF][2Nal][αMeL]E[Dab][3Pal]-NH2
modifications: lactam 1-10, N-6
SMILES: CC(C)C[C@]1(C)NC(=O)[C@H](Cc2ccc3ccccc3c2)NC(=O)[C@H](Cc2ccc(OCCN)cc2)NC(=O)[C@@H]2CCC(=O)N[C@@H](CCCCNC(=O)CC[C@@H](C(=O)N[C@@H](CCN)C(=O)N[C@@H](Cc3cccnc3)C(N)=O)NC1=O)C(=O)N[C@@H]([C@@H](C)O)C(=O)N[C@@H](C(C)C)C(=O)N[C@@H](Cc1c[nH]c3ccccc13)C(=O)N[C@@H](CCC(N)=O)C(=O)N2
B2: Compound 60 (peptide)
peptide: KIVWQE[AEF][2Nal][αMeL]E[Dab][3Pal]-NHMe
modifications: lactam 1-10, N-6
SMILES: CC[C@H](C)[C@@H]1NC(=O)[C@@H]2CCCCNC(=O)CC[C@@H](C(=O)N[C@@H](CCN)C(=O)N[C@@H](Cc3cccnc3)C(=O)NC)NC(=O)[C@](C)(CC(C)C)NC(=O)[C@H](Cc3ccc4ccccc4c3)NC(=O)[C@H](Cc3ccc(OCCN)cc3)NC(=O)[C@H](CCC(=O)N2)NC(=O)[C@H](CCC(N)=O)NC(=O)[C@H](Cc2c[nH]c3ccccc23)NC(=O)[C@H](C(C)C)NC1=O
B3: Compound 39 (peptide)
peptide: ETWQE[AEF][2Nal][αMeL]K[Dab][3Pal]-NHMe
modifications: lactam 1-9, N-5
SMILES: CNC(=O)[C@H](Cc1cccnc1)NC(=O)[C@H](CCN)NC(=O)[C@@H]1CCCCNC(=O)CC[C@@H]2NC(=O)CC[C@H](NC(=O)[C@H](CCC(N)=O)NC(=O)[C@H](Cc3c[nH]c4ccccc34)NC(=O)[C@H]([C@@H](C)O)NC2=O)C(=O)N[C@@H](Cc2ccc(OCCN)cc2)C(=O)N[C@@H](Cc2ccc3ccccc3c2)C(=O)N[C@@](C)(CC(C)C)C(=O)N1
B4: Compound 36 (peptide)
peptide: KTWQE[AEF][2Nal][αMeL]E[Dab][3Pal]-NHMe
modifications: lactam 1-9, N-5
SMILES: CNC(=O)[C@H](Cc1cccnc1)NC(=O)[C@H](CCN)NC(=O)[C@@H]1CCC(=O)NCCCC[C@@H]2NC(=O)CC[C@H](NC(=O)[C@H](CCC(N)=O)NC(=O)[C@H](Cc3c[nH]c4ccccc34)NC(=O)[C@H]([C@@H](C)O)NC2=O)C(=O)N[C@@H](Cc2ccc(OCCN)cc2)C(=O)N[C@@H](Cc2ccc3ccccc3c2)C(=O)N[C@@](C)(CC(C)C)C(=O)N1
B5: Compound 1 (peptide)
peptide: [dK]TVWQE[AEF][2Nal][αMeL]E[Dab][3Pal]-NH2
modifications: lactam 1-10; lactam (positions not given here); not fully specified (bridges); printed as [{d}K](1c)(6c)^{†}TVWQE(6c)[Y(2-aminoethoxy)][2-Nal][2-Me-Leu]E(1c)[Dab][3-(3-Pyridyl)-Ala]-[NH2]
B6: Compound 17 (peptide)
peptide: KIVWQE[Phe(4-Me)][2Nal][Aib]E[Dab][3Pal]-NH2
modifications: lactam 1-10, N-6
SMILES: CC[C@H](C)[C@@H]1NC(=O)[C@@H]2CCCCNC(=O)CC[C@@H](C(=O)N[C@@H](CCN)C(=O)N[C@@H](Cc3cccnc3)C(N)=O)NC(=O)C(C)(C)NC(=O)[C@H](Cc3ccc4ccccc4c3)NC(=O)[C@H](Cc3ccc(C)cc3)NC(=O)[C@H](CCC(=O)N2)NC(=O)[C@H](CCC(N)=O)NC(=O)[C@H](Cc2c[nH]c3ccccc23)NC(=O)[C@H](C(C)C)NC1=O
B7: Compound 3 (peptide)
peptide: [dK]TVWQD[AEF][2Nal][αMeL]E[Dab][3Pal]-NH2
modifications: lactam 1-10, N-6
SMILES: CC(C)C[C@]1(C)NC(=O)[C@H](Cc2ccc3ccccc3c2)NC(=O)[C@H](Cc2ccc(OCCN)cc2)NC(=O)[C@@H]2CC(=O)N[C@H](CCCCNC(=O)CC[C@@H](C(=O)N[C@@H](CCN)C(=O)N[C@@H](Cc3cccnc3)C(N)=O)NC1=O)C(=O)N[C@@H]([C@@H](C)O)C(=O)N[C@@H](C(C)C)C(=O)N[C@@H](Cc1c[nH]c3ccccc13)C(=O)N[C@@H](CCC(N)=O)C(=O)N2

Experiments:
[1] = target: T1, Nluc-IL23R fusion protein; test: BRET competition vs TAMRA-labelled peptide, Nluc-IL23R membranes
[2] = target: T2, human IL-23R endogenously expressed on …; test: cell-based or functional assay

| Binder | % displacement [1] | hIL-23 (pSTAT3) antagonist % inhibition [2] | hIL-23 (pSTAT3) antagonist IC50 [2] | IC50 [1] |
| --- | --- | --- | --- | --- |
| [4‑Aminomethyl‑phenylacetyl]SCWQC[AEF][2Nal][αMeL]E[Dab][3Pal]-NH2 (lactam N-10; linker 3-6 via 1,3‑dibromopropan‑2‑one″) [Ref 120] | 94% | 101% | 54 pM | – |
| [4‑Aminomethyl‑phenylacetyl]SCWQC[AEF][2Nal][αMeL]E[dR]-NH2 (lactam N-10; linker 3-6 via 1,3‑dibromopropan‑2‑one″) [Ref 80] | 98% | 97% | 11 nM | – |
| B1 | 100% | 99% | 0.11 nM | – |
| B2 | 95% | 101% | 0.63 nM | – |
| [bLys]TVWQE[AEF][2Nal][αMeL]E[Dab][3Pal]-NH2 (lactam 1-10, N-6) [Compound 12] | 104% | 100% | – | – |
| B3 | 98% | 99% | 2.4 nM | – |
| [3Amb]SCWQC[AEF][2Nal][αMeL]E[dR]-NH2 (lactam N-10; linker 3-6 via 1,3‑dibromopropan‑2‑one″) [Ref 41] | 110% | 99% | 29 nM | – |
| Ac-KTCWQC[AEF][2Nal][αMeL]E[Dab][3Pal]-NH2 (lactam 1-10; linker 3-6 via 1,3‑dibromopropan‑2‑one″) [Ref 155] | 97% | 100% | 31 pM | – |
| [4‑Aminomethyl‑phenylacetyl]SEWQ[Dab][AEF][2Nal][αMeL]E[Dab][3Pal]-NH2 (lactam N-10; bridge 3-6; also: (2c) bridge type not defined) [Ref 122] | 97% | – | 28 pM | – |
| B4 | 100% | 97% | 1.1 nM | – |
| [4‑Aminomethyl‑phenylacetyl]SCWQC[AEF][2Nal][αMeL]E[Dab]-NH2 (lactam N-10; linker 3-6 via 1,3‑dibromopropan‑2‑one″) [Ref 82] | 103% | 97% | 11 nM | – |
| B5 | 103% | 102% | 0.23 nM | – |
| B6 | 107% | 99% | 2.9 nM | 0.092 nM |
| [3Amb]SCWQC[AEF][2Nal][αMeL]ER[3Pal]-NH2 (lactam N-10; linker 3-6 via 1,3‑dibromopropan‑2‑one″) [Ref 78] | 100% | 100% | 0.13 nM | – |
| B7 | 105% | 101% | 1.5 nM | – |
| [4‑Aminomethyl‑phenylacetyl]SCWQC[AEF][2Nal][αMeL]ER-NH2 (lactam N-10; linker 3-6 via 1,3‑dibromopropan‑2‑one″) [Ref 52] | 100% | 103% | 7.8 nM | – |
